{
  "source": "patent US9731036",
  "about": "(dated 2017)",
  "molecules": {"B1": {"name": "CCM6-SL43,44RQ (CEACAM6 with R and Q at positions 43 and 44 instead of S and L) (receptor, human, UniProt P40199 35-320, looked up)", "chain": "KLTIESTPFNVAEGKEVLLLAHNLPQNRIGYSWYKGERVDGNRQIVGYVIGTQQATPGPAYSGRETIYPNASLLIQNVTQNDTGFYTLQVIKSDLVNEEATGQFHVYPELPKPSISSNNSNPVEDKDAVAFTCEPEVQNTTYLWWVNGQSLPVSPRLQLSNGNMTLTLLSVKRNDAGSYECEIQNPASANRSDPVTLNVLYGPDVPTISPSKANYRPGENLNLSCHAASNPPAQYSWFINGTFQQSTQELFIPNITVNNSGSYMCQAHNSATGLNRTTVTMITVSG", "notes": "whole, on cells; also called CEACAM6-SL43,44RQ"}, "B2": {"name": "CCM6-S43R (CEACAM6 with 43S changed to 43R) (receptor, human, UniProt P40199 35-320, looked up)", "chain": "B1 chain with Q44L", "notes": "whole, on cells; also called CEACAM6-S43R"}, "B3": {"name": "CCM6-L44Q (CEACAM6 with 44L changed to 44Q) (receptor, human, UniProt P40199 35-320, looked up)", "chain": "B1 chain with R43S", "notes": "whole, on cells; also called CEACAM6-L44Q"}, "B4": {"name": "CCM6-TailCCM1 (entire extracellular portion of CEACAM6 fused to the transmembrane and tail portions of CEACAM1) (receptor, human, UniProt P40199 35-320, looked up)", "chain": "KLTIESTPFNVAEGKEVLLLAHNLPQNRIGYSWYKGERVDGNSLIVGYVIGTQQATPGPAYSGRETIYPNASLLIQNVTQNDTGFYTLQVIKSDLVNEEATGQFHVYPELPKPSISSNNSNPVEDKDAVAFTCEPEVQNTTYLWWVNGQSLPVSPRLQLSNGNMTLTLLSVKRNDAGSYECEIQNPASANRSDPVTLNVLYGPDVPTISPSKANYRPGENLNLSCHAASNPPAQYSWFINGTFQQSTQELFIPNITVNNSGSYMCQAHNSATGLNRTTVTMITVSGAIAGIVIGVVALVALIAVALACFLHFGKTGRASDQRDLTEHKPSVSNHTQDHSNDPPNKMNEVTYSTLNFEAQQPTQPTSASPSLTATEIIYSEVKKQ", "notes": "extracellular domain;domain: transmembrane and tail portions"}, "B5": {"name": "CEACAM1-Ig fusion protein (extracellular portion of CEACAM1 fused to the Fc portion of human IgG1) (Fc fusion, UniProt P13688 35-428, looked up)", "chain": "QLTTESMPFNVAEGKEVLLLVHNLPQQLFGYSWYKGERVDGNRQIVGYAIGTQQATPGPANSGRETIYPNASLLIQNVTQNDTGFYTLQVIKSDLVNEEATGQFHVYPELPKPSISSNNSNPVEDKDAVAFTCEPETQDTTYLWWINNQSLPVSPRLQLSNGNRTLTLLSVTRNDTGPYECEIQNPVSANRSDPVTLNVTYGPDTPTISPSDTYYRPGANLSLSCYAASNPPAQYSWLINGTFQQSTQELFIPNITVNNSGSYTCHANNSVTGCNRTTVKTIIVTELSPVVAKPQIKASKTTVTGDKDSVNLTCSTNDTGISIRWFFKNQSLPSSERMKLSQGNTTLSINPVKREDAGTYWCEVFNPISKNQSDPIMLNVNYNALPQENGLSPG", "notes": "extracellular domain; Made in COS-7 cells, purified on protein G. A silent nucleotide change (A885G, glycine 281 unchanged) removes a BamHI site; also called CCM1-Ig; soluble CEACAM1-Ig; not shown: Fc portion of human IgG1"}, "B6": {"name": "CD99-Ig fusion protein (control) (Fc fusion, UniProt P14209 23-122, looked up)", "chain": "DGGFDLSDALPDNENKKPTAIPKKPSAGDDFDLGDAVVDGENDDPRPPNPPKPMPNPNPNHPSSSGSFSDADLADGVSGGEGKGGSDGGGSHRKEGEEAD", "notes": "extracellular domain; Made in COS-7 cells, purified on protein G; construct described elsewhere; also called control CD99-Ig; not shown: human IgG1 Fc portion"}},
  "key": {"[1]": {"molecular_target": "T1, CEACAM1 protein (CD66a), whole, on cells (human, UniProt P13688 35-526)", "T1 construct": "whole, on cells; also called CCM1", "T1 sequence (looked up)": "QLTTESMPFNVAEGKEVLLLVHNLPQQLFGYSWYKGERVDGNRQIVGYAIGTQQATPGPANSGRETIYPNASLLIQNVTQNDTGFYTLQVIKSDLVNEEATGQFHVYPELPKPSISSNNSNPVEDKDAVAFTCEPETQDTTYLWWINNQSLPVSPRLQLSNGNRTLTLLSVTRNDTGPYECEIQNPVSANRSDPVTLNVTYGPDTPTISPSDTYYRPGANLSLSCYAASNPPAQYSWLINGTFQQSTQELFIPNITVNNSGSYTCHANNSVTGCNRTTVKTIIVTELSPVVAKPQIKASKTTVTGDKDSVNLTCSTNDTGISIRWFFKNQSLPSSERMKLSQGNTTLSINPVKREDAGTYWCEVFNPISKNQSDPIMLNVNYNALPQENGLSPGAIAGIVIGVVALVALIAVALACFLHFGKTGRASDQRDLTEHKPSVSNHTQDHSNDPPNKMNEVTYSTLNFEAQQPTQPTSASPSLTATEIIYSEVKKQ", "assay": "cell-based or functional assay"}, "[2]": {"molecular_target": "B5", "assay": "flow cytometry on 721.221 transfectants", "source_text": "(§1) The staining of the secondary reagent FITC-conjugated goat anti-mouse F(ab_)2 of each cell type was used as background (_). The y-axis indicates the median fluorescence intensity (MFI). […] The y-axis indicates the median fluorescence intensity (MFI). […] The E:T cell ratio was 2:1.\n(§2) Specificity of CEACAM1 Binding to CEACAM6 is Controlled by the Presence of Both 43R and 44Q Residues To determine whether both residues are required for binding, the amino acid residues in positions 43 and 44 in CEACAM1 (contains 43R44Q) and CEACAM6 (contains 43S44L) were mutated. Using site-directed mutagenesis in the CEACAM1, the 43R residue was changed to 43A (CCM1-R43A) and the 44Q residue was changed to 44L (CCM1-Q44L). In CEACAM6, the 43S was changed to 43R (CCM6-S43R) and 44L was changed to 44Q (CCM6-L44Q). All mutants were generated as described in Materials and Methods and stably transfected into 0.221 cells. The expression level was monitored by Kat4c mAb, and conformation was monitored by 5F4 mAb (FIG. 7A). […] Similar results were obtained when both 44Q and 43R residues in CEACAM1 were mutated (FIG. 5)."}, "[3]": {"molecular_target": "T2, CCM1-RQ43,44SL (CEACAM1 with S and L at positions 43 and 44 instead of R and Q) (human, UniProt P13688 35-526)", "T2 construct": "whole, on cells; also called CEACAM 1-RQ43,44SL", "T2 sequence (looked up)": "T1 sequence (looked up) with R43S, Q44L", "assay": "flow cytometry on 721.221 transfectants", "source_text": "as §1, §2"}, "[4]": {"molecular_target": "T3, CCM1-R43A (CEACAM1 with 43R changed to 43A) (human, UniProt P13688 35-526)", "T3 construct": "whole, on cells; Expression lower than that of the other transfectants; also called CEACAM1-R43A", "T3 sequence (looked up)": "T1 sequence (looked up) with R43A", "assay": "flow cytometry on 721.221 transfectants", "source_text": "as §1, §2"}, "[5]": {"molecular_target": "T4, CCM1-Q44L (CEACAM1 with 44Q changed to 44L) (human, UniProt P13688 35-526)", "T4 construct": "whole, on cells; also called CEACAM1-Q44L", "T4 sequence (looked up)": "T1 sequence (looked up) with Q44L", "assay": "flow cytometry on 721.221 transfectants", "source_text": "as §1, §2"}, "[6]": {"molecular_target": "T1, CEACAM1 protein (CD66a), whole, on cells", "assay": "flow cytometry on 721.221 transfectants", "source_text": "as §1, §2"}, "[7]": {"molecular_target": "T5, CEACAM6 protein, whole, on 721.221 cells (human, UniProt P40199 35-320, GPI-anchored to the cell membrane)", "T5 construct": "whole, on cells; also called CCM6; CD66c", "T5 sequence (looked up)": "B1 chain with R43S, Q44L", "assay": "flow cytometry on 721.221 transfectants", "source_text": "as §1, §2"}, "[8]": {"molecular_target": "B1", "assay": "flow cytometry on 721.221 transfectants", "source_text": "as §1, §2"}},
  "note": "Positions count from the first letter of the chain named. Numbers in names are those of the source.",
  "data": [
    {"molecule": "mAb Kat4c (DakoCytomation), directed against CEACAM1, -5, -6, and -8 (antibody)", "values": [
      {"measurement": "intracellular IFN-gamma staining of the NKT clone after cross-linking with Kat4c (fold above background)", "setting": "[1]", "result": 4.5}
    ]},
    {"molecule": "B1", "values": [
      {"measurement": "binding result", "setting": "[2]", "result": "binds"}
    ]},
    {"molecule": "B2", "values": [
      {"measurement": "binding result", "setting": "[2]", "result": "no binding"}
    ]},
    {"molecule": "B3", "values": [
      {"measurement": "binding result", "setting": "[2]", "result": "no binding"}
    ]},
    {"molecule": "B4", "values": [
      {"measurement": "binding result", "setting": "[2]", "result": "no binding"}
    ]},
    {"molecule": "B5", "values": [
      {"measurement": "binding result", "setting": "[3]", "result": "no binding"},
      {"measurement": "binding result", "setting": "[4]", "result": "no binding"},
      {"measurement": "binding result", "setting": "[5]", "result": "no binding"}
    ]},
    {"molecule": "B6", "values": [
      {"measurement": "binding result", "setting": "[6]", "result": "no binding"},
      {"measurement": "binding result", "setting": "[7]", "result": "no binding"},
      {"measurement": "binding result", "setting": "[3]", "result": "no binding"},
      {"measurement": "binding result", "setting": "[8]", "result": "no binding"}
    ]}
  ]
}
